Patent US12258605B2, “Alkane oxidation by modified hydroxylases” (The California Institute of Technology, priority 2005, dated 2025)

Experiments:
[1] = Octane hydroxylation (rate, ttn, regio- and enantioselectivity); format: biochemical; conditions: for Octane ttn / Octane Rate: 1% ethanol; for Octane Rate: initial rate of octanol formation over 1 min; for Octane % 2-octanol: regioselectivity
Procedure: Cell lysates for high throughput screening were prepared as described previously (Peters et al., J. Am. Chem. Soc. 125:13442 (2003); incorporated by reference herein). High-throughput dimethyl ether (DME) screens were performed in 96 well plates as described previously. Improved mutants were selected based on an increased signal compared to 9-10A (for the saturation mutagenesis libraries) and 1-12G (for the recombination library). Reactions on octane and propane were analyzed by gas chromatography as described.
Rates of ethanol formation were measured over 30 min using gas chromatography (GC) coupled to an electron capture detector (ECD) and are reported as nmol ethanol/min/nmol enzyme. Errors are at most 10%. Total turnover number (ttn) was measured using GC after completion of the reaction and is reported as nmol product/nmol protein. Errors are at most 10%. Initial rates of propanol and octanol formation were measured over 1 min by GC and are reported as nmol product/min/nmol protein. Errors are at most 15%. The “ee” of 2-octanol (main product) was measured by GC; the favored enantiomer is listed in parenthesis. Wild-type P450 BM-3 primarily produces 3- and 4-octanol. The yields were not sufficient for the determination of ee for wt BM-3. Mutant 9-10A contains amino acid substitutions R47C, V78A K94I, P142S, T175I, A184V, F205C, S226R, H236Q, E252G, R255S, A290V, and L353V.
In Table 5 the product distribution is determined as ratio of a specific alcohol product to the total amount of all alcohol products (given in %). The product distribution for ketones was similar to alcohol product distribution. The numbers reported here are the (%) total of all ketones relative to total products (alcohols+ketones). The favored enantiomer is listed in parentheses.
For the data shown in Table 6 the initial NADPH consumption rates were measured over 15 seconds at 340 nm as nmol NADPH/min/nmol protein. Octane reactions contained 100 nM P450, 166 uM NADPH, and 4 mM octane in 1% ethanol and potassium phosphate buffer. […] Errors are at most 10%. Initial rates were measured by GC over 1 minute as nmol total products/min/nmol protein. Octane reactions contained 100 nM P450, 500 uM NADPH, and 4 mM octane in 1% ethanol and potassium phosphate buffer. Propane reactions contained 1 uM P450, 500 uM NADPH, and propane-saturated potassium phosphate buffer. Coupling was determined by ratio of product formation rate to NADPH consumption rate. Total turnover numbers were determined as nmol product/nmol enzyme. Octane reactions contained 10-25 nM P450, 500 uM NADPH, and 4 mM octane in 1% ethanol and potassium phosphate buffer. Propane reactions contained 10-25 nM protein, potassium phosphate buffer saturated with propane, and an NADPH regeneration system containing 100 uM NADP+, 2 U/mL isocitrate dehydrogenase, and 10 mM isocitrate.
Twenty-one single active site mutants with increased activity towards either of these substrates were isolated. Mutations that improved the activity were found at amino acid positions L75 (I, W), A78 (T, F, S), A82 (T, S, F, I, C, G, L), F87 (I, V, L), T88 (C), T260 (N, L, S) and A328 (L, F, M). The single active site mutants of 9-10A were characterized by their altered regioselectivity towards octane. Each of these mutations produces a characteristic octanol product distribution as a result of their presence altering the active site geometry above the heme cofactor. Transformations were carried out using cell lysates. The mutations were generated in variant 9-10A (with amino acid mutations R47C, V78A, K94I, P142S, T175I, A184V, F205C, S226R, H236Q, E252G, R255S, A290V, L353V). “Others” indicates over oxidation products (ketones and aldehydes) with a similar product distribution as the alcohols. “Rate” was measured as nmol octanol/nmol P450/minute. “TTN” was measured as nmol octanol/nmol P450 produced in 4 hour reaction.
Mutations are relative to variant 9-10A (described above). Wild-type has a valine at position 78. […]

[2] = Chloromethane dehalogenation (Purpald detection of formaldehyde); format: biochemical; conditions: for colorimetric response (Purpald): chloromethane, cofactor regeneration system
Excerpt: The dehalogenation reaction is based on the hydroxylation of the carbon atom carrying the halogen by a spontaneous (base catalyzed) alpha-elimination reaction which leads to the formation of an aldehyde or ketone depending on the starting haloalkane. The expected reaction mechanism for the dehalogenation of a general alpha-haloalkane is described by the scheme:
To test the feasibility of this approach, chloromethane was chosen as substrate for the dehalogenation reaction. Compared to other haloalkanes, chloromethane (CM) has the advantage to be moderately soluble in water (0.5 g/100 ml) and to lead to formaldehyde as end product of the hydroxylation/alpha-elimination reaction. Formaldehyde can be then readily detected by colorimetric reaction with Purpald as described previously. To test the reaction, two BM-3 mutants from later rounds of random mutagenesis, 35-E1141 and 20-D3, were incubated in the presence of CM and a cofactor regeneration system based on NADP^+, glucose-6-phosphate and glucose-6-phosphate dehydrogenase. Reactions with wild-type P450 BM-3 and without enzyme were included as controls.
The reaction was repeated in the presence of additional BM-3 mutants, including 1-8H, 1-12G2 and the wild-type P450 BM-3 in which A328 was substituted with valine (BM-3-A328V) (FIG. 27B). […] Wild-type BM-3 was substituted with other amino acid residues at position […].
The activity of BM-3-A328V on CM and other substrates such as HME, DME, and propane was further investigated by measuring product formation rate, cofactor consumption and coupling efficiency (Table 14). This mutant was also found to be capable to hydroxylate ethane to ethanol, although only for a total of about 5-10 turnovers. In Table 14 “consumption” rates are expressed as nmol NADPH/nmol enzyme/min and “product formation” rates are expressed as nmol product/nmol enzyme/min.

Molecule | rate of octane hydroxylation [1] [min⁻¹] | Octane ttn [1] [nmol product/nmol protein] | Octane Rate [1] | Octane % 2-octanol [1] [%] | total turnover number on CM ([2]; compared with the other mutants of the study) | Octane % ee ([1]; ee of 2-octanol (main product), favored enantiomer (S)) [%] | colorimetric response (Purpald) [2]
Wild-type BM-3: wild-type cytochrome P450 BM-3 from Bacillus megaterium, SEQ ID NO:1 (protein, listed as Bacillus megaterium) TIKEMPQPKTFGELKNLPLLNTDKPVQALMKIADELGEIFKFEAPGRVTRYLSSQRLIKEACDESRFDKNLSQALKFVRDFAGDGLFTSWTHEKNWKKAHNILLPSFSQQAMKGYHAMMVDIAVQLVQKWERLNADEHIEVPEDMTRLTLDTIGLCGFNYRFNSFYRDQPHPFITSMVRALDEAMNKLQRANPDDPAYDENKRQFQEDIKVMNDLVDKIIADRKASGEQSDDLLTHMLNGKDPETGEPLDDENIRYQIITFLIAGHETTSGLLSFALYFLVKNPHVLQKAAEEAARVLVDPVPSYKQVKQLKYVGMVLNEALRLWPTAPAFSLYAKEDTVLGGEYPLEKGDELMVLIPQLHRDKTIWGDDVEEFRPERFENPSAIPQHAFKPFGNGQRACIGQQFALHEATLVLGMMLKHFDFEDHTNYELDIKETLTLKPEGFVVKAKSKKIPLGGIPSPSTEQSAKKVRKKAENAHNTPLLVLYGSNMGTAEGTARDLADIAMSKGFAPQVATLDSHAGNLPREGAVLIVTASYNGHPPDNAKQFVDWLDQASADEVKGVRYSVFGCGDKNWATTYQKVPAFIDETLAAKGAENIADRGEADASDDFEGTYEEWREHMWSDVAAYFNLDIENSEDNKSTLSLQFVDSAADMPLAKMHGAFSTNVVASKELQQPGSARSTRHLEIELPKEASYQEGDHLGVIPRNYEGIVNRVTARFGLDASQQIRLEAEEEKLAHLPLAKTVSVEELLQYVELQDPVTRTQLRAMAAKTVCPPHKVELEALLEKQAYKEQVLAKRLTMLELLEKYPACEMKFSEFIALLPSIRPRYYSISSSPRVDEKQASITVSVVSGEAWSGYGEYKGIASNYLAELQEGDTITCFISTPQSEFTLPKDPETPLIMVGPGTGVAPFRGFVQARKQLKEQGQSLGEAHLYFGCRSPHEDYLYQEELENAQSEGIITLHTAFSRMPNQPKTYVQHVMEQDGKKLIELLDQGAHFYICGDGSQMAPAVEATLMKSYADVHQVSEADARLWLQQLEEKGRYAKDVWAG | 30 | 150 | 30 nmol product/min/nmol protein | 17 | no detectable activity | – | –
35-E11: P450 BM-3 variant, SEQ ID NO:7: 53-5H substitutions plus E464G and I710T (protein, mutant P450 35-E11 protein sequence) TIKEMPQPKTFGELKNLPLLNTDKPVQALMKIADELGEIFKFEAPGCVTRYLSSQRLIKEACDESRFDKNLSQALKFFRDFSGDGLFTSWTHEINWKKAHNILLPSFSQQAMKGYHAMMVDIAVQLVQKWERLNADEHIEVSEDMTRLTLDTIGLCGFNYRFNSFYRDQPHPFIISMVRALDEVMNKLQRANPDDPAYDENKRQCQEDIKVMNDLVDKIIADRKARGEQSDDLLTQMLNGKDPETGEPLDDGNISYQIITFLIAGHETTSGLLSFALYFLVKNPHVLQKVVEEAARVLVDPVPSYKQVKQLKYVGMVLNEALRLWPTFPAFSLYAKEDTVLGGEYPLEKGDEVMVLIPQLHRDKTIWGDDVEEFRPERFENPSAIPQHAFKPFGNGQRACIGQQFALHEATLVLGMMLKHFDFEDHTNYELDIKETLTLKPEGFVVKAKSKKIPLGGIPSPSTGQSAKKVRKKAENAHNTPLLVLYGSNMGTAEGTARDLADIAMSKGFAPQVATLDSHAGNLPREGAVLIVTASYNGHPPDNAKQFVDWLDQASADEVKGVRYSVFGCGDKNWATTYQKVPAFIDETLAAKGAENIADRGEADASDDFEGTYEEWREHMWSDVAAYFNLDIENSEDNKSTLSLQFVDSAADMPLAKMHGAFSTNVVASKELQQPGSARSTRHLEIELPKEASYQEGDHLGVIPRNYEGTVNRVTARFGLDASQQIRLEAEEEKLAHLPLAKTVSVEELLQYVELQDPVTRTQLRAMAAKTVCPPHKVELEALLEKQAYKEQVLAKRLTMLELLEKYPACEMKFSEFIALLPSIRPRYYSISSSPRVDEKQASITVSVVSGEAWSGYGEYKGIASNYLAELQEGDTITCFISTPQSEFTLPKDPETPLIMVGPGTGVAPFRGFVQARKQLKEQGQSLGEAHLYFGCRSPHEDYLYQEELENAQSEGIITLHTAFSRMPNQPKTYVQHVMEQDGKKLIELLDQGAHFYICGDGSQMAPAVEATLMKSYADVHQVSEADARLWLQQLEEKGRYAKDVWAG | – | 8000 | 420 nmol product/min/nmol protein | 89 | – | 65 | specific colorimetric response
20-D3: P450 BM-3 variant, SEQ ID NO:11; 35-E11 plus H285R (protein, mutant P450 20-D3 protein sequence, 35-E11 plus H285R) TIKEMPQPKTFGELKNLPLLNTDKPVQALMKIADELGEIFKFEAPGCVTRYLSSQRLIKEACDESRFDKNLSQALKFFRDFSGDGLFTSWTHEINWKKAHNILLPSFSQQAMKGYHAMMVDIAVQLVQKWERLNADEHIEVSEDMTRLTLDTIGLCGFNYRFNSFYRDQPHPFIISMVRALDEVMNKLQRANPDDPAYDENKRQCQEDIKVMNDLVDKIIADRKARGEQSDDLLTQMLNGKDPETGEPLDDGNISYQIITFLIAGHETTSGLLSFALYFLVKNPRVLQKVVEEAARVLVDPVPSYKQVKQLKYVGMVLNEALRLWPTFPAFSLYAKEDTVLGGEYPLEKGDEVMVLIPQLHRDKTIWGDDVEEFRPERFENPSAIPQHAFKPFGNGQRACIGQQFALHEATLVLGMMLKHFDFEDHTNYELDIKETLTLKPEGFVVKAKSKKIPLGGIPSPSTGQSAKKVRKKAENAHNTPLLVLYGSNMGTAEGTARDLADIAMSKGFAPQVATLDSHAGNLPREGAVLIVTASYNGHPPDNAKQFVDWLDQASADEVKGVRYSVFGCGDKNWATTYQKVPAFIDETLAAKGAENIADRGEADASDDFEGTYEEWREHMWSDVAAYFNLDIENSEDNKSTLSLQFVDSAADMPLAKMHGAFSTNVVASKELQQPGSARSTRHLEIELPKEASYQEGDHLGVIPRNYEGTVNRVTARFGLDASQQIRLEAEEEKLAHLPLAKTVSVEELLQYVELQDPVTRTQLRAMAAKTVCPPHKVELEALLEKQAYKEQVLAKRLTMLELLEKYPACEMKFSEFIALLPSIRPRYYSISSSPRVDEKQASITVSVVSGEAWSGYGEYKGIASNYLAELQEGDTITCFISTPQSEFTLPKDPETPLIMVGPGTGVAPFRGFVQARKQLKEQGQSLGEAHLYFGCRSPHEDYLYQEELENAQSEGIITLHTAFSRMPNQPKTYVQHVMEQDGKKLIELLDQGAHFYICGDGSQMAPAVEATLMKSYADVHQVSEADARLWLQQLEEKGRYAKDVWAG | – | – | – | – | – | – | specific colorimetric response
